Experimental data as given in the DeepSol protein solubility set.

Assay: soluble on expression in E. coli; label from the status in PepcDB or PDB records

Sequence | soluble on expression in E. coli
MGSDKIHHHHHHMDNPVEEHSPTAQTPVLNLDNVPVGVPLEWPIVDADGTLLFATGTILATTDERNFLFGHFHPQRGDLLDAATQPAPESDAHADPGSPLTLKDMHLEIGALIGVRPQVGSGAPMHPCRIIGFAPNHALFVTPPMHDGRMLPMGLGENIEIVAIASHAVFRFVCTIEAICRSPFDYVVLSKPGVIRRLRERKSIRVRTHLAVRFGIGQSGESYEGLGLAKGVSALGMSLAASWTLGAVGDRLRLAFRLKSKDLDTEIETTAVIRNVQQGSGPGTPSTHGLELDQLDATQQMAMKVFVFDRQDDVVYWSSGLK | not soluble
MGSDKIHHHHHHMDNVPEPSSEKFRAYRQKLLDQLETSSQGERHRAQYELELMRNSHFVKVGGLLHHYHDSGPENPRGTVLLIHGWDCWWMWWHRIIRELNAAGYRTVAYDMKGHGWSENDPENRYQIADFVRDLDELIRAIGLKDLHIAAFSFGPFVALDYVNTYPNSVRSMVFFNFGYLPNSEFISKVAPATIIFIFNIMMRKLTWWLPAYIFARLVLSRNSVMMHDIKVGFESLGFCASEAIEQTAQQITAMETTQMLPDMVRAVRVPILFAAGEGDVIMTCENARKLQEMTPSGSYLCVPDCGHLITLELPQTAAEIVLQHISSNS | not soluble
MGSDKIHHHHHHMDSSCSPKHGWFDSVAESYAQQRPYYPESLFTWISSKAASHQRCWDVACGSGQASLGLARHFDRVDASDLSPAQVAAAPAHSNIHYQVAAAEDSGFPNACMDAIVVAAAIHWLDVPRFNEEALKVARPGGLMVWVGYDPPQGAPPALQLWLDQLYSERLSSWWPPQRHHVDNHYQNLPFPTISKTLPQELCISLKWSCEQLIGYIGTWSALRKATQEGHDLLPQLSMELQRLWPADQKTIPLIFPLMGRWGYLAR | not soluble
MGSDKIHHHHHHMDTKAFKRSLQHSENYNRKGFGHQAEVATQLQSEYQSNLIQEIRDRNYILQRGDVTIRLAQAFGFCWGVERAVAMAYETRQHFPTEHIWITNEIIHNPSVNQRMQEMEVEFIPIEGKNKDFSVVGTGDVVILPAFGASVQEMQILHDKGCKIVDTTCPWVSKVWNTVEKHKKIDYTSIIHGKYKHEETVATSSFAGKYLIVLNLQEAQYVADYIINGGNREEFLTKFAKACSAGFDPDRDLERVGIANQTTMLKDETEQIGKLFERTMLQKYSPIELNQHFQSFNTICDATQERQDAMLELVEHNLNLMVVIGGFNSSNTTQLQQIAFERRIPSYHIDTVERIKSGDSIEHRQLNGQLITTENWLPDGEIVVGITSGASTPDKVVEDVIEKIFAVKATAALV | not soluble
MGSDKIHHHHHHMDVIFSIFLETFGDPIGQQPVPPAAVDHYQGKLPNRLLEYWQDHGWCGYGGGLFWLVNPQEYQGVVASWLAGTHFEACDTYHLIARSAFGDLYLWGEKTGSVLTIAAYHSRYLDGAHSSGDEERDNKIHGLLMWLMTECVYFDDLFEPARERLGTLGSDEMYGFVPALMLGGPDSLERLEKLKAVEHLVLLSQLSELEPYELTGEEDE | not soluble
MGSDKIHHHHHHMEFSQLRIFQAVAEEGSVTRAAERLHRVPSNLSTRLRQLEEQLGVELFLRERQRLQLSPAGKVLLDYANRMSALRDEALGAVRGGQPAGDFVLGTMYSTAATHLPALLARYHQSYPQVNLQVRAAPSGELLEGLLNHTLDAALVDGPPSLAGLDGVPLCDEQLVLITSPEHPAVLTAKDVAGKAVFTFRQGCSYRMRLEAWYAHAHTPMGRVMEIESYQSMLACVIAGAGVAMMAQSMLDSLPGRDRVRVHSLQAPFDQAVTWLMWRQGMRGANLQAWIDLQQSETINQSSECAATA | not soluble
MGSDKIHHHHHHMEGRINPENWKDIFSDTLYIITDPNGVTAVIPEETAKTASSEPVKAAPADIKPTPVTTATPALPKIPSIPTPASATPNQQPAPVAAATAVLKPAGKYSNGILILMHVSYTMTPAQQEMLGKIVKAVQLDYNECGVLQVSAPVSLKEIETLKPRIVLSFGLPTDAFEPRMTKDLYSIQKHNSTIMLLADSLAKLETTVALKSNLWNAMKEMFGIK | not soluble
MGSDKIHHHHHHMEILQRQLLFKLAVCQGIGNLGILKVLQEAIAQKRVDFSSTEIIRIAEIKKYRELFEQSWLHHTIHSEALYIRQCQHQFMTILDAVYPKLLREIYNPPAILFYRGNLQLLSRRKIGIVGARYATSYGLRVTEALVPKIVKEGFTIVSGLAKGIDSRSHEMAIQNGGQTIGILGTGLDVYYPYEKKELQQTMKQNQLVLTEYVNGSGPKKYHFPARNRIIAGLSLGVCVMEARKNSGSLITAQAAMDYGREVFAVPGSIFQSFSTGCHELIQDGAKCVQTIDDICEEL | not soluble
MGSDKIHHHHHHMEKEFRILNIVSAKIWGGGEQYVYDVSKALGLRGCTMFTAVNKNDELMRRRFSEVSSVFTTRLHTFNGLFSLYALTRFIRENHISHLMIHTGKIAALSVLLKKLTGVRLIFVKHNVVANKTDFYHRLIQKNTDRFICVSRLVYDVQTADNPFKEKYRIVHNGIDTGRFPPSQEKPDSRFFTVAYAGRISPEKGLENLIEACVILHRKYPQIRLKLAGHGHPDYMCRLKRGVSASGAEPFVSFEGFTEKLASFYRQSDVVVLPSLVPEAFGLSLCEAMYCRTAVISNTLGAQKEIIEHHQSGILLDRLTPESLADEIERLVLNPEAKNALATAGHQCVAARFTINHTADKLLDAI | not soluble
MGSDKIHHHHHHMEKEMLTFDITNDFIVGDRITKETLNKYSKLPHKIKAGLFLLCVEGSVQASINLAKYTINKYDFVTLVPSNFIQFHEISDDARFYFAGFSSEFMTNINFIKSTMSFLPVITEHPIMPLEESVAQLYIDGYRLLIRAQSLSPSYSMVNKNLVIAYLTIFMQGTAELYKNHSHWTNGIRTRTNEIYRKFIQLVVEHYTTEHSVSFYAAQLNLSLPHFCTTIKKAIGLTPLEIISSIITMDAKAQLRSTDLTVKEIAFSLGFNNLSFFNKYFRQHTGMTPQEYRRMKIPSST | not soluble
MGSDKIHHHHHHMEKLKLMTIVGTRPEIIRLSSTIKACDQYFNQILVHTGQNYDYTLNQIFFDDLELRQPDHYLEAVGSNLGETMGNIIAKTYDVLLREQPDALLILGDTNSCLAAVSAKRLKIPVFHMEAGNRCFDQNVPEEINRKIVDHVSDVNLPYTEHSRRYLLDEGFNKANIFVTGSPMTEVIEAHRDKINHSDVLNKLGLAPAAYILVSAHREENIDNEKNFKSLMNAINDIAKKYKMPVIYSTHPRSWKKIEESKFEFDPLVKQLKPFGFFDYNALQKDAFVVLSDSGTLSEESSILKFPGVLIRTSTERPEVLDKGTVIVGGITYNNLIQSVELAREMQNNNEPMIDAIDYKDTNVSTKVVKIIQSYKDIINRNTWRK | not soluble
MGSDKIHHHHHHMEKQKEVQKEYEEYQYMLDTETWKKELSQFKLSSSEKISKNPKVSIIIANYNNAPYLKKMMDSLVQQTIGIEQLQVMFIDDCSTDHSLKVIEPYLERYPNIEIYQLLENTGGAHGPRNVGIVNARGEYSVFLDADDWYDLNALKYLSDLLDDSHDDFAVSGLIQSTDGHLMLKSKPYYVDGSFKNRSIQELPAEFYGWLGPQAIMLRTSLIHNNNLHFVNQRVADDVLFFYEAMRFSKTITQGERLTTYLNRDADNESLSKSINRTFMLSWLRALSYINQQFPDDLSKERMLARRLEWLIYDFCIRRNTGYPFSKRRLQDFKVQMDQYLGELNFDPSPYFRSDVRQIIWTFLQTNDIDGLYWFIQCQSIRWVLVNRFGYVSKTERSYYYPRLLKRFPAVRMNAYAEATQREGNTLSLNVYTHQKITGFEIKELKNPFETRQRLAFKKISETSYQVELPEKFSNKESRFTIVFDNYLEIGVKDFSKFFA | not soluble
MGSDKIHHHHHHMEKRYQIFISSTFIDLKDERQAALKAILEIDHMPAGMELFSATDDSAWQLIQDVIDSSDYYILIVGGRYGSLDEAGLSYTEKEYDYALLTKKPVIPLLHENPDNLPRDKTETDSNAWKKLQDFRKKVQKKHTCVYWRNADDLKAKVIVGLTSAIKRHPAVGWVRADKVPTETALAEVLSLKNKITELEKEAALLRDKPPSGTEFLAQGNDKYEIHLSFKSRGKFSIFSHDEDKKYNASINLTWNAIFAAVAPSMINEASAHTLRQAFTDFFKRESLKAFQSQKRFENYELVDFSFHKDEIETCIVQLRALGLIKENDRKRSVSDTSTYWTLTPYGNTLMVQLRAIKREPLEDEDLDGTAVES | not soluble
